Test [1] addresses Design 3997 L1: CR8071 lambda light chain S122D_E124Q_T131R. Kind of test: SMCA, LC-MS.
For test [2] the target is unchanged. Kind of test: SMCA: H1, L1, H2, L2 co-expressed in CHO-3E7, protein A, LC-MS.
The target of test [3] is Design 4008 L2: SGN-CD19a kappa light chain Q124R_L135W_T178R. Description: SMCA, LC-MS.
The target in test [4] is Design 2994 L1: CR8071 lambda light chain E124Q_T131K. Description: SMCA, LC-MS.
Test [5] has the same target. Description: SMCA: H1, L1, H2, L2 co-expressed in CHO-3E7, protein A, LC-MS.
Test [6] deals with SGN-CD19a kappa light chain L2 with Q124E_Q160E_T180E (SMCA design 2826). Kind of test: SMCA: four chains co-expressed, protein A, LC-MS.
Test [7] has the same target. Description: SMCA LC-MS.
For test [8] the target is unchanged. Description: SMCA LC-MS. This is another data set of the same source.
The target is the same in test [9]. Description: SMCA: four chains co-expressed, protein A, LC-MS. The source holds these as a separate data set.
In test [10] the target is Design 4320 L2: SGN-CD19a kappa light chain Q124K_L135A_T178R. Kind of test: SMCA, LC-MS.
The target of test [11] is Design 4040 L1: CR8071 lambda light chain K129T_S180E. Kind of test: SMCA, LC-MS.
The target is the same in test [12]. Kind of test: SMCA: H1, L1, H2, L2 co-expressed in CHO-3E7, protein A, LC-MS.
In test [13] the target is SGN-CD19a kappa light chain L2, design 2188 (V133G_S176D). Description: SMCA, System C.
For test [14] the target is unchanged. Kind of test: SMCA, System C, LC-MS.
For test [15], the target named is Designs 4008 and 4010 L1: CR8071 lambda light chain K129T_V133D. Kind of test: SMCA, LC-MS.
Test [16] has the same target. Kind of test: SMCA: H1, L1, H2, L2 co-expressed in CHO-3E7, protein A, LC-MS.
Test [17] has as its target Design 3954 L2: SGN-CD19a kappa light chain S121K_S176E_T178E. Kind of test: SMCA: H1, L1, H2, L2 co-expressed, protein A, LC-MS.
Test [18] has the same target. Described as above. This is another data set of the same source.
Test [19] shares this target. The description is as above. The source holds these as a separate data set.
Test [20] deals with Design 2994 L2: SGN-CD19a kappa light chain Q124E_V133D. Kind of test: SMCA, LC-MS.
For test [21] the target is unchanged. Kind of test: SMCA: H1, L1, H2, L2 co-expressed in CHO-3E7, protein A, LC-MS.
Test [22] addresses CR8071 lambda light chain L1 with Q38E (SMCA design 34). Kind of test: SMCA LC-MS.
Test [23] has the same target. Description: SMCA: four chains co-expressed, protein A, LC-MS.
In test [24] the target is SGN-CD19a kappa light chain L2 with V133G_S176D (SMCA design 2188). Description: SMCA LC-MS.
Test [25] has the same target. Kind of test: SMCA: four chains co-expressed, protein A, LC-MS.
The target of test [26] is Design 4010 L2: SGN-CD19a kappa light chain S131R_V133G_L135W_S176R. Description: SMCA, LC-MS.
Test [27] concerns the target Design 3997 L2: SGN-CD19a kappa light chain S121K_V133I_S176D_T178E. Kind of test: SMCA, LC-MS.
For test [28] the target is unchanged. Kind of test: SMCA: H1, L1, H2, L2 co-expressed in CHO-3E7, protein A, LC-MS.
Test [29] concerns the target Design 4040 L2: SGN-CD19a kappa light chain P44F_Q124K_T178R. Kind of test: SMCA, LC-MS.
Test [30] has the same target. Kind of test: SMCA, LC-MS. The source holds these as a separate data set.
Test [31] shares this target. Description: SMCA: H1, L1, H2, L2 co-expressed in CHO-3E7, protein A, LC-MS.
Test [32] addresses SGN-CD19a kappa light chain L2 S121K_Q124R_T178R (design 3967, Systems B and C). Description: SMCA: H1, L1, H2, L2 co-expressed, protein A, LC-MS.
Test [33] has the same target. The test is described as above. This is another data set of the same source.
The target is the same in test [34]. Described as above. This is another data set of the same source.
The target of test [35] is CR8071 lambda light chain L1 with E124R (SMCA design 2826). Kind of test: SMCA LC-MS.
Test [36] has the same target. Kind of test: SMCA: four chains co-expressed, protein A, LC-MS.
Test [37] concerns the target CR8071 lambda light chain L1, design 2188 (V133G_S176R). Kind of test: SMCA, System C.
For test [38] the target is unchanged. Description: SMCA, System C, LC-MS.
For test [39], the target named is Design 4320 L1: CR8071 lambda light chain T116F_K129T_V133D_S176F. Kind of test: SMCA, LC-MS.
Test [40] shares this target. Description: SMCA: H1, L1, H2, L2 co-expressed in CHO-3E7, protein A, LC-MS.

“And” between values parts separate entries of the source, which are not always exact repeats. Equal entries are not always repeated. Where two headings read alike, the source gives them in different places.

As to “Design 3997 H1: CR8071 heavy chain A125R_L143E_K145T_Q179E”, in test [1], the Change in % H1L1 Pairing with respect to wild type is 27.9%. This substance also yielded a % H1L1 Pairing in test [2] of 96%.
With “Design 4008 H2: SGN-CD19a heavy chain L143E_K145T_Q179E”, the Change in % H2L2 Pairing with respect to wild type in test [3] was 33.3% and 38.4%.
For “Design 2994 H1: CR8071 heavy chain L143E_K145T_Q179E”, in test [4], the Change in % H1L1 Pairing with respect to wild type is -22.1%. For the same substance, the % H1L1 Pairing in test [5] stood at 26.3%.
As for “SGN-CD19a full-length heavy chain H2 with Q179K (SMCA design 2826)”, the % H2L2 Pairing in test [6] came to 98%; in test [9], 89.7%. Besides, the Change in % H2L2 Pairing with respect to wild type in test [7] stood at 26.7%; in [8], 35.5%.
In the case of “Design 4320 H2: SGN-CD19a heavy chain L143E_K145T_Q179E_V190F”, in test [10], the Change in % H2L2 Pairing with respect to wild type is 17.9% and 21.5%.
Regarding “Design 4040 H1: CR8071 heavy chain S186R”, the Change in % H1L1 Pairing with respect to wild type in [11] came out at 30.6%. The % H1L1 Pairing in [12] was determined as 98.7%.
In test [13], “SGN-CD19a heavy chain H2, design 2188 (L124R)” had a % H2L2 Pairing of 99.5%. This substance gave a Change in % H2L2 Pairing with respect to wild type in test [14] of 19.9%.
Take “Designs 4008 and 4010 H1: CR8071 heavy chain A139W_L143K”: the Change in % H1L1 Pairing with respect to wild type in [15] was 17.3% and 17%. Also, the % H1L1 Pairing in test [16] was 99.6% and 99.3%.
“Design 3954 H2: SGN-CD19a heavy chain S188K_K228D”: the Change in % H2L2 Pairing with respect to wild type in [17] came to 7.6%; in test [18], 19.1%. For the same substance, the % H2L2 Pairing was determined as 98.7% in test [18] and 61.8% in [19].
Consider “Design 2994 H2: SGN-CD19a heavy chain L143K”, for which the Change in % H2L2 Pairing with respect to wild type in test [20] was 45% and 20.1%. Further, the % H2L2 Pairing in test [21] is 99.2% and 99.7%.
“CR8071 full-length heavy chain H1 with Q39R (SMCA design 34)”: in [22], the Change in % H1L1 Pairing with respect to wild type was found to be 24.5%. The % H1L1 Pairing in [23] was found to be 92.6%.
In [24], “SGN-CD19a full-length heavy chain H2 with L124R (SMCA design 2188)” gave a Change in % H2L2 Pairing with respect to wild type of 38.7%. Also, the % H2L2 Pairing in test [25] amounted to 92.9%.
“Design 4010 H2: SGN-CD19a heavy chain L124E_K145T_Q179E”: the Change in % H2L2 Pairing with respect to wild type in test [26] was 33.9% and 38.7%.
In test [27], “Design 3997 H2: SGN-CD19a heavy chain S188K_K228D” gave a Change in % H2L2 Pairing with respect to wild type of 28.6%. Besides, the % H2L2 Pairing in test [28] stood at 99.9%.
Take “Design 4040 H2: SGN-CD19a heavy chain L45P_L143E_K145T_Q179E”: the Change in % H2L2 Pairing with respect to wild type in test [29] was found to be 27.3%; in test [30], 21.6%. The % H2L2 Pairing in test [31] was 75.8% and 98.6%.
On to “SGN-CD19a heavy chain H2 L143E_K145T_Q179E_K228D (design 3967, Systems B and C)”, for which the values for the Change in % H2L2 Pairing with respect to wild type in [32] and in test [34] were 44.4% and 28.7%, respectively. Further, the results for the % H2L2 Pairing in test [33] and in test [34] were 98.6% and 100%, respectively.
“CR8071 full-length heavy chain H1 with L143E_K145T (SMCA design 2826)”: the Change in % H1L1 Pairing with respect to wild type in test [35] is -40.3%. In test [36], this substance yielded a % H1L1 Pairing of 27.8%.
“CR8071 heavy chain H1, design 2188 (L124E)”: the % H1L1 Pairing in test [37] is 24.9%. For the same substance, the Change in % H1L1 Pairing with respect to wild type in test [38] was -23.5%.
As for “Design 4320 H1: CR8071 heavy chain L143K_F174G”, the Change in % H1L1 Pairing with respect to wild type in [39] was 14.3%. In test [40], this substance returned a % H1L1 Pairing of 96.6%.

(Values after patent US20190338048A1.)
